Experimental data from patent US20260234247A1 (published 2026).

Columns and labels:
human LILRB2 = molecular target: T1, human LILRB2 (human, UniProt Q8N423 22-460, limits assumed); assay: Octet off-rate ranking;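 note: antibody dissociation rate constants against cynomolgus LILRB2 plus human LILRB1, LILRB2, LILRA1 and LILRA2, measured on an Octet instrument to rank binding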
T1 construct: also called hLILRB2
From the text: (§1) Binding affinity of anti-LILRB1 and anti-LILRB2 antibodies against human LILRB1, LILRB2, LILRA1, LILRA2 and cynomolgus LILRB2 was ranked by measuring dissociation rate constant (Kdis) using the Octet system.

human LILRB1 = molecular target: T2, human LILRB1 (human, UniProt Q8NHL6 24-458, limits assumed); assay: Octet off-rate ranking;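 note: antibody dissociation rate constants against cynomolgus LILRB2 plus human LILRB1, LILRB2, LILRA1 and LILRA2, measured on an Octet instrument to rank binding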
T2 construct: also called hLILRB1
From the text: as §1

human LILRB1-his = molecular target: T3, human LILRB1-his (human, UniProt Q8NHL6 24-458, limits assumed); assay: SPR (Biacore 8K), antibody captured via Fc, LILRB1-his as analyte, 1:1 model
T3 construct: Analyte of the Biacore run; not shown: His tag

human LILRB2-his = molecular target: T4, human LILRB2-his (human, UniProt Q8N423 22-460, limits assumed); assay: SPR (Biacore 8K), antibody captured via Fc, LILRB2-his as analyte, 1:1 model
T4 construct: Analyte of the Biacore run; not shown: His tag

[1] = molecular target: T5, human LILRB1 expressed on CHOK1 cells (CHOK1-hLILRB1) (human, UniProt Q8NHL6 24-650); assay: cell based RBA, flow cytometry: blocking of HLA-G binding to CHOK1-hLILRB1 cells
T5 construct: whole, on cells; also called CHOK1-LILRB1

[2] = molecular target: T6, human LILRB2 expressed on CHOK1 cells (CHOK1-hLILRB2) (human, UniProt Q8N423 22-597); assay: FACS binding to CHOK1-hLILRB2 cells
T6 construct: whole, on cells; also called CHOK1-LILRB2
T6 sequence (Q8N423 22-597): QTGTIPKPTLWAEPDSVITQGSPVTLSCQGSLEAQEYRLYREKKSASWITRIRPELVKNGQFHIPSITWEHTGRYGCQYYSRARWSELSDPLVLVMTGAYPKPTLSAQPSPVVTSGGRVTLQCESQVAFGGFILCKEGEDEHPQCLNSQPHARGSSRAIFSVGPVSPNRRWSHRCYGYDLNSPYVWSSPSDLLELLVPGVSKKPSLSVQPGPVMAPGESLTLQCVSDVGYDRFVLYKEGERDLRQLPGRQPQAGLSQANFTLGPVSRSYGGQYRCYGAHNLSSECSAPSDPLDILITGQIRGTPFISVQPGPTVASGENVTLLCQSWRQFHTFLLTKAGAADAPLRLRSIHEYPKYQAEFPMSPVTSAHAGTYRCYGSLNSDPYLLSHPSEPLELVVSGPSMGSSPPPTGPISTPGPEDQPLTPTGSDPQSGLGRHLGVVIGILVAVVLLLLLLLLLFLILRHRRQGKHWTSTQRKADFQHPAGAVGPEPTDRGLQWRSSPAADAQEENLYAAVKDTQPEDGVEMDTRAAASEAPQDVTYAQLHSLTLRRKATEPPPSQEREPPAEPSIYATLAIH

T2 sequence (Q8NHL6 24-458 limits assumed): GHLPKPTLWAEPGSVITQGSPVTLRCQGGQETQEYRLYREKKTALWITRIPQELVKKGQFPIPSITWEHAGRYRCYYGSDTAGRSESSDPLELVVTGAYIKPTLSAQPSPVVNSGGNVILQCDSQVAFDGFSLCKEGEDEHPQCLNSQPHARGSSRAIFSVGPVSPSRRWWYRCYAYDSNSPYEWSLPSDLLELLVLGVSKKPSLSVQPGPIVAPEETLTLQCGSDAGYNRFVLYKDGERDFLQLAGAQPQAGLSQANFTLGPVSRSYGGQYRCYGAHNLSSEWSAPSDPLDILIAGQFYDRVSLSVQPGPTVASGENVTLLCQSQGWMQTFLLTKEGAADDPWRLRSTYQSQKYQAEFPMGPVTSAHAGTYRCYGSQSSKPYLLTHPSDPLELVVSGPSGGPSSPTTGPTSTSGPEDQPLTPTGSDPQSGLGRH
T3 sequence (Q8NHL6 24-458 limits assumed): as above
T1 sequence (Q8N423 22-460 limits assumed): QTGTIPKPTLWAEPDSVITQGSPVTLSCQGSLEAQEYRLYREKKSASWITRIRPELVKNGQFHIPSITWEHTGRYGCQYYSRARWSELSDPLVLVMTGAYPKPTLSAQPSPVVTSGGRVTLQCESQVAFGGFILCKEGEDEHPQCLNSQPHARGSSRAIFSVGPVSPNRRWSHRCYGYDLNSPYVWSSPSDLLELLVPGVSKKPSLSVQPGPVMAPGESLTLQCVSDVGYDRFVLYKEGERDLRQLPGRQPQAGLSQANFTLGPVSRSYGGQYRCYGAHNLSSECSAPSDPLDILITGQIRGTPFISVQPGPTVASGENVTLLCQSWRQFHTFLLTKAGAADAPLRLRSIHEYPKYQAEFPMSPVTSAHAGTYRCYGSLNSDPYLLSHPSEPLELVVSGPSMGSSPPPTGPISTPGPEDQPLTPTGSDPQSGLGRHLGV
T4 sequence (Q8N423 22-460 limits assumed): as above
T5 sequence (Q8NHL6 24-650): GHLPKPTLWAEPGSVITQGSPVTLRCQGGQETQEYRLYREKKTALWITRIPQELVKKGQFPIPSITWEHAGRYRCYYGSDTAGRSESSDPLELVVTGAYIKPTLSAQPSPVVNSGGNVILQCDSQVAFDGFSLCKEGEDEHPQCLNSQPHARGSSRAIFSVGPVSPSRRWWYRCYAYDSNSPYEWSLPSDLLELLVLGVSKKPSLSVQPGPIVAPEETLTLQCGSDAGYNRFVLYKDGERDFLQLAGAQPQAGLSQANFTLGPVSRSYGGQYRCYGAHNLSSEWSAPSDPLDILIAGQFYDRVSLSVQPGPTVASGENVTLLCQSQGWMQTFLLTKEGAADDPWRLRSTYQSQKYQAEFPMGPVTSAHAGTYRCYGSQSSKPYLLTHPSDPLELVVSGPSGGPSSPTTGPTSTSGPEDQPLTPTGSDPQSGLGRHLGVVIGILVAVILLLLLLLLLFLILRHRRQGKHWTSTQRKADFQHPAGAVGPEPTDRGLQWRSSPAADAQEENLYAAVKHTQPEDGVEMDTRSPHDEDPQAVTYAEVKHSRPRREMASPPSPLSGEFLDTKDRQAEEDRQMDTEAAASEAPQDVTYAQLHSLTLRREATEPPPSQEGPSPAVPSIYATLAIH

Row | koff (human LILRB2) [s⁻¹] | Kd (human LILRB2-his) [pM] | koff (human LILRB2-his) [s⁻¹] | kon (human LILRB2-his) [M⁻¹ s⁻¹] | Binder | other results
1 | 0.000895 |  |  |  | LK-RB2-20 (antibody, human IgG4 S228P, kappa, V domains shown) VH: QVQLKQPGAERVKPGASVKMSCKASGYTFTRYWITWVKQRPGQGLEWIGDIYPGSATTNYNEKFKSKATLTEDTSSSTAYMQLSSLTSEDSAVYYCARSGDYSNSNYAMDYWGQGTSVTVSS VL: NIEMTQSPKSMSMAVGERVTLSCKASENVGTYVSWYQQKPEQSPKLLIYGASNRNTGVPDRFTGSGSATDFTLTISSVQAEDLADYHCGQSYSYPFTFGSGTKLEIKR | 
2 | 0.000244 |  |  |  | LK-RB2-24 (antibody, human IgG4 S228P, kappa, V domains shown) VH: QIQLVQSGPEVKKPGETVKISCKASGYTFTTYGMSWVKQAPGKGLKWMGWLNIYSGVPAYADDFKGRFAFSLESSASTAYLQINNLKNEDTATYFCARRENYDGYGMDYWGQGTSVTVSS VL: DIVMTQSPATLSVTPGDRVSLSCRASQSISDYLHWYQQKSHESPRLLIKYASQSISGIPSRFSGSGSGSDFTLSINSVEPEDVGVYYCQNGHSFPYTFGGGTKLEIKR | koff (human LILRB1): 0.000205 s⁻¹
3 | 0.0012 |  |  |  | LK-RB2-35 (antibody, human IgG4 S228P, kappa, V domains shown) VH: EVQLQQSGPELVKPGASVKISCKASGYTFTDYNMHWVKQSHGKSLEWIGSIYPYNGGSDYNQKFKSKATLTVDNSSSTAYMELRSLTSEDSAVYYCASELTGLYAMDYWGQGTSVTVSS VL: DIVMTQSPATLSVTPGDRVSLSCRASQSISDYLHWYQQKSHESPRLLIKYASQSISGIPSRFSGSGSGSDFTLSINSVEPEDVGVYYCQTGHSFPYTFGGGTKLEIKR | 
4 | 0.000966 |  |  |  | LK-RB2-21 (antibody, human IgG4 S228P, kappa, V domains shown) VH: EVQLVESGGDLVKPGGSLKLSCAASGFTFSSYGMSWVRQTPDKRLEWVATISSGGSYTYYPDSLKGRFTISRDNAKSTLYLQMSSLKSEDTAKYYCARPYYDYIFYAIDYWGQGTSVTVSS VL: DIQMNQSPSSLSASLGDTITITCHASQNINVWLSWYQQKPGNIPKLLIYKASNLHTGVPSRFSGSGSGTGFTLTISSLQPEDIATYYCQQGQSYPLTFGGGTKLEIKR | 
5 |  | 852 | 0.000638 | 749000 | LK-RB2-24.h3 (antibody, human IgG4, kappa, V domains shown, Humanized form of LK-RB2-24) VH: QVQLVQSGSELKKPGASVKVSCKASGYTFTTYGMSWVKQAPGQGLKWMGWLNIYSGVPAYADDFKGRFVFSLDTSASTAYLQISSLKAEDTAVYFCARRENYDGYGMDYWGQGTLVTVSS VL: EIVLTQSPATLSLSPGERATLSCRASQSISDYLHWYQQKPGQAPRLLIKYASQSISGIPSRFSGSGSGTDFTLTISSLEPEDVAVYYCQNGHSFPYTFGGGTKLEIKR | Kd (human LILRB1-his): 20100 pM; koff (human LILRB1-his): 0.00335 s⁻¹; kon (human LILRB1-his): 167000 M⁻¹ s⁻¹
6 |  | 836 | 0.000758 | 907000 | LK-RB2-24.h1 (antibody, human IgG4, kappa, V domains shown, Humanized form of LK-RB2-24) VH: QVQLVQSGSELKKPGASVKVSCKASGYTFTTYGMSWVKQAPGQGLKWMGWLNIYSGVPAYADDFKGRFVFSLDTSASTAYLQISSLKAEDTAVYFCARRENYDGYGMDYWGQGTLVTVSS VL: EIVLTQSPATLSLSPGERATLSCRASQSISDYLHWYQQKPGQAPRLLIKYASQSISGIPARFSGSGSGTDFTLTISSLEPEDFAVYYCQNGHSFPYTFGGGTKLEIKR | Kd (human LILRB1-his): 25100 pM; koff (human LILRB1-his): 0.00446 s⁻¹; kon (human LILRB1-his): 177000 M⁻¹ s⁻¹
7 | 0.00139 |  |  |  | LK-RB2-33 (antibody, human IgG4 S228P, kappa, V domains shown) VH: EVQLQQSGVELVRPGALVKLSCKASGFNIKDYYMHWVKQRPEQGLEWIGWIDPEKGDTIYGPKFQGKASITADTSSNTAYLQLSSLTSEDTAVYYCSRGPNYGSSYAFAYWGQGTLVTVSA VL: DVVMTQSHKFMSTSVGDRVTITCKASQDVSNAVAWYQQKPGQSPKLLIYSASYRYTGVPDRFTGSGSGTDFTFTISSMQAEDLAVYYCQQHYSLPWTFGGGTKLEIKR | 
8 | 0.00126 |  |  |  | LK-RB2-22 (antibody, human IgG4 S228P, kappa, V domains shown) VH: QIQLVQSGPELKKTGETVKISCKASGYTFTTYGMSWVKQAPGKGLKWMGWINIYSGVPTYADDFKGRFAFSLETSASTAYLQINNLKNEDTATYFCARRADYDGYYFDYWGQGTTLTVSS VL: NIVMTQTPKFLLVSAGDRVTITCRASQSVTNDVAWYQQRPGQSLKLLIYYASNRYTGVPDRFTGSGYGTDFTFTISTVQAEDLAVYFCQQGYSSPFTFGSGTKLEIKR | 
9 | 0.000876 |  |  |  | LK-RB2-23 (antibody, human IgG4 S228P, kappa, V domains shown) VH: QIQLVQSGPELKKPGETVKISCKASGYTFTTYGMSWVKQAPGKGLKWMGWINIYSGVPTYADDFKGRFAFSLETSASTAYLQINNLKNEDTATYFCARRGDYDGYYFDYWGQGTTLTVSS VL: NIVLIQSAATLSVTPGDSVSLSCRASQSLSNGLHWYQQKSHESPRLLIKYGSQSISGIPSRFSGSGSGTDFTLSINSVETEDFGMYFCQQSDSWPHTFGSGTKLEIKR | 
10 | 8.84e-05 |  |  |  | LK-RB2-45 (antibody, human IgG4 S228P, kappa, V domains shown) VH: QIQLVQSGPELKKPGETVKISCKASGYTFTTYGMSWVKQTPGKGLQWMGWINVYSGVPTYADDFKGRFAFSLEASASTAYLQINNLKNEDTASYFCARRGDYDGHYFDYWGQGTTLTVSS VL: DIVMTQSPATLSVTPGDRVSLSCRASQSISDYLNWYQQKSHESPRLLIKYVSQSISGIPSRFSGSGSGSDFTLSINSVEPEDIGVYYCQNGHNFPLTFGGGTKLELKR | 

The remaining lines, values behind:

Row | Binder | koff (human LILRB2) [s⁻¹] | Kd (human LILRB2-his) [pM] | koff (human LILRB2-his) [s⁻¹] | kon (human LILRB2-his) [M⁻¹ s⁻¹] | other results
11 | LK-RB2-24.h2 (antibody, human IgG4, kappa, V domains shown, Humanized form of LK-RB2-24) VH: QVQLVQSGSELKKPGASVKVSCKASGYTFTTYGMSWVKQAPGQGLKWMGWLNIYSGVPAYADDFKGRFVFSLDTSASTAYLQISSLKAEDTAVYFCARRENYDGYGMDYWGQGTLVTVSS VL: EIVLTQSPATLSLSPGERATLSCRASQSISDYLHWYQQKPGQAPRLLIKYASQSISGIPSRFSGSGSGTDFTLTISSLEPEDFAVYYCQNGHSFPYTFGGGTKLEIKR |  | 1010 | 0.000871 | 860000 | Kd (human LILRB1-his): 31600 pM; koff (human LILRB1-his): 0.00582 s⁻¹; kon (human LILRB1-his): 184000 M⁻¹ s⁻¹
12 | LK-RB2-2.h1 (antibody, human IgG4, kappa, V domains shown, Humanized form of LK-RB2-2) VH: EVQLVESGGGLVKPGGSLRLSCAASGFTFSSYAMSWVRQAPGKGLEWVSYISSGGDYFHYADTVKGRFTISRDNAKNSLYLQMNSLRAEDTAVYYCAREGAHYDSSYLAWFAHWGQGTLVTVSS VL: DIQMTQSPSSVSASVGDRVTITCRASENIYSNLAWYQQKPGKAPKLLIYAATNLAEGVPSRFSGSGSGTDYTLTISSLQPEDFATYYCQQFWDNPLTFGQGTKLEIKR |  | 161 | 0.000123 | 766000 | 
13 | LK-RB2-2.h3 (antibody, human IgG4, kappa, V domains shown, Humanized form of LK-RB2-2) VH: EVQLVESGGGLVKPGGSLRLSCAASGFTFSSYAMSWVRQAPGKGLEWVAYISSGGDYFHYADTVKGRFTISRDNAKNSLYLQMNSLRAEDTAVYYCTREGAHYDSSYLAWFAHWGQGTLVTVSS VL: DIQMTQSPSSVSASVGDRVTITCRASENIYSNLAWYQQKPGKAPKLLIYAATNLAEGVPSRFSGSGSGTDYTLTISSLQPEDFATYYCQQFWDNPLTFGQGTKLEIKR |  | 201 | 0.000129 | 642000 | 
14 | LK-RB2-2.h2 (antibody, human IgG4, kappa, V domains shown, Humanized form of LK-RB2-2) VH: EVQLVESGGGLVKPGGSLRLSCAASGFTFSSYAMSWVRQAPGKGLEWVSYISSGGDYFHYADTVKGRFTISRDNAKNSLYLQMNSLRAEDTAVYYCAREGAHYDSSYLAWFAHWGQGTLVTVSS VL: DIQMTQSPSSVSASVGDRVTITCRASENIYSNLAWYQQKPGKAPKLLVYAATNLAEGVPSRFSGSGSGTDYTLTISSLQPEDFATYYCQQFWDNPLTFGQGTKLEIKR |  | 208 | 0.00014 | 673000 | 
15 | LK-RB1-39 (antibody, human IgG4 S228P, kappa, V domains shown) VH: EVQLQQSGAELVRPGASVKLSCTASGFNIKDDYVHWVNQRPEQGLEWIGWIDPENGDTGYASKFQDKATITADTSSNTAYLHLSSLTSEDTAVYYCTTTRWTGSYWGQGTTLTVSS VL: QIVLTQSPAIMSASPGEKVTITCSASSSVNYMHWFQQKPGSSPKLWIYSTANLASGVPARFSGSGSGTSYSLTISRMEAEDAATYYCQQRSSYPPTWTFGGGTKLEIKR | 0.00153 |  |  |  | koff (human LILRB1): 4.64e-05 s⁻¹
16 | LK-RB2-8 (antibody, human IgG4 S228P, kappa, V domains shown) VH: QIQLVQSGPELKKPGETVKISCKASGYSFASYGMGWVKQAPGKGLKWLGWINTHSGVPTYADDFKGRFAFSLETSASTAYLQINNLKNEDTATYFCAHYGRPWFPYWGQGTLVTVSA VL: DIQMTQSPASLSASVGETVTITCRTSENIYSYLAWYQQKQGKSPQLLVYNAKSLAEGVPSRFSGSGSGTQFSLRINSLQPEDFGTYYCQQHYETPLTFGAGTKLELKR | 1e-07 |  |  |  | koff (human LILRB1): 4.85e-05 s⁻¹
17 | LK-RB2-16 (antibody, human IgG4 S228P, kappa, V domains shown) VH: QIQLVQSGPELKKPGETVKISCKASGYTFTTYGMGWVKQAPEKGLKWMGWINTNSGAPTYGDDFKGRFAFSLETSASTAYLQINNLKNEDTATYFCAHYGRPWFAYWGQGTLVTVSA VL: DIQMTQSPASLSASVGETVTITCRASENIYSYLAWYHQKQGESPQLLVYNAKTLAEGVPSRFSGSGSGTQFSLKINSLQPEDFGSYYCQHHYNIPLTFGAGTKLELKR | 5.5e-05 |  |  |  | koff (human LILRB1): 0.000238 s⁻¹
18 | 12D12 (antibody, human IgG4 S228P, kappa, V domains shown) VH: QVQLQQPGAELVKPGASVRMSCKASGYTFTSYWVHWVKQRPGQGLEWIGVIDPSDSYTSYNQNFKGKATLTVDTSSKTAYIHLSSLTSEDSAVYFCARGERYDGDYFAMDYWGQGTSVTVSS VL: DIVMTQSPASLSVSVGETVTITCRASENIYSNLAWYQQKQGKSPQLLVYAATNLADGVPSRFSGSRSGTQYSLKINSLQSEDFGTYYCQHFWNTPRTFGGGTKLEIKR |  |  |  |  | EC50 [1]: 1260 pM; Top Inhibition [1]: 89.1%; binding result [2]: no binding
